These results are taken from paper doi:10.1101/2023.11.02.565302.

The target of the assay is ligand-binding domain (LBD) of rat GluK1 (rat). In words: crystal structure.

With “ligand-binding domain (LBD) of rat GluK1 (domain or fragment)”, the stoichiometry N (in general, the number of molecules, sites or subunits per partner or assembly) is 2.
